For two sequences, binding signal (ohm (impedance increase)), binding signal and Kd results are on record in PMC4570336.

As a reminder, the Kd is the free concentration of one partner at which half of the binding sites on the other are occupied at equilibrium, for simple one-to-one binding.

Where two headings read alike, the source gives them in different places.

For data set [1], the system named is Inactivated H5N1 avian influenza virus (whole virion) (Avian influenza virus H5N1 (Scotland/59)).
In data set [2] the test system is Inactivated H2N2 influenza virus (whole virion) (Avian influenza virus H2N2 (strain not stated)). The following applies: 5'-biotin; scale: ohm.
Data set [3] deals with Inactivated H7N2 avian influenza virus (whole virion) (Avian influenza virus H7N2 (strain not stated)). The following applies: 5'-biotin; scale: ohm.
In data set [4] the test system is Inactivated H1N1 influenza virus (whole virion) (Avian influenza virus H1N1 (strain not stated)). The following applies: 5'-biotin; scale: ohm.
The test system of data set [5] is Inactivated H5N1 avian influenza virus (whole virion) (Avian influenza virus H5N1 (Scotland/59)). Kind of data set: SPR. The following applies: 5'-biotin; cited from earlier work.

Take “CCGAATTCGAAGGACAAGAGGCGAAAAGATTTAAAGTAATCAAAGACTGAGCAACTCTTATCTTTTATGCTACGTCCCGC [control sequence (non-target aptamer)]”: the binding signal (ohm (impedance increase)) in data set [1] is 282.

Consider “GTGTGCATGGATAGCACGTAACGGTGTAGTAGATACGTGCGGGTAGGAAGAAAGGGAAATAGTTGTCCTGTTG [H5N1 aptamer]”, for which, in data set [1] (5'-biotin), the binding signal (ohm (impedance increase)) came out at 61000. Besides, the binding signal in data set [2], in data set [3] and in data set [4] was -2000 in each case. In data set [5], the Kd is 4.65 nM.
